Measurements reported in paper PMC4571291.

Target: actin (UniProt P68135)
Test: ITC; Tmod or Lmod construct in the syringe titrated into LatB-actin in the cell (LatB:actin 1.2:1); 20 mM HEPES pH 7.5, 100 mM NaCl, 0.2 mM ATP, 1 mM DTT; temperature and concentrations listed in the figures

Chain of Tmod1_(ABS1) (P28289 whole entry, the tested form may be a part): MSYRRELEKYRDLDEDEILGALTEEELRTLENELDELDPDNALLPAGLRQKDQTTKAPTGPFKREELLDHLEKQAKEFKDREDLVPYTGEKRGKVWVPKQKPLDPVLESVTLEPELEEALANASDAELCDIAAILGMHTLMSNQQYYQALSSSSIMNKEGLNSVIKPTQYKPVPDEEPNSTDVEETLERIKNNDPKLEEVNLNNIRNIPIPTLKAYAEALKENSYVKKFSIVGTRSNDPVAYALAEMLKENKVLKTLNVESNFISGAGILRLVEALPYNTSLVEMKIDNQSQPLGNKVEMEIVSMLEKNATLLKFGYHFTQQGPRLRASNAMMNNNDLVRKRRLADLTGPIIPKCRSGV

- stoichiometry N: 1
Substance: Tmod1_(ABS1) (from UniProt P28289-1 1-359) (domain or fragment)
